Assay results from patent US5198419A, “Formulated medicines for enhancing the efficacy of beta-lactam antibiotics in prophylaxis and treatment against infectious disease due to pathogenic bacteria” (Immuno Japan Inc., priority 1989, dated 1993).
Entries after “also recorded” stand apart in the source; their conditions may differ.

Legend:
[1] = tested on: Klebsiella pneumoniae strain 3K25; assay: Example 1: experimental infection in mice, cefpodoxime with or without native lactoferrin; type: in vivo, strain ICR; conditions: lactoferrin alone 0.4 mg/mouse p.o.; within 24 hours / one day after injection
Description: (§1) For ED50 values, a range of amounts of antibiotics is given in the examples (e.g., penicillin G: 0.4, 0.2, 0.1, 0.05 mg/mouse). To calculate the ED50, groups of mice in the monotherapy groups and groups of mice in the combined therapy groups received the indicated amount of antibiotic (e.g., one group received 0.4 mg/mouse of penicillin G, one group received 0.2 mg/mouse of penicillin G, one group received 0.1 mg/mouse of penicillin G, one group received 0.05 mg/mouse of penicillin G).
Sixty male mice, strain ICR, four weeks of age, body weight 19±1.0 g (mean±the standard deviation) were randomly divided into ten groups (n=6); the first group was assigned to the untreated control, the second group to the lactoferrin treated control group, the third through the sixth groups to the cephalosporin treated controls, and the seventh through the tenth groups to the combined treatment group of cephalosporin and lactoferrin. The mice were intraperitoneally injected with pneumobacillus, Klebsiella pneumoniae strain 3K25, 5×10^6 colony forming units (CFU) per mouse. The antibiotics used were orally active cephalosporin or cefpodoxime, and the bovine lactoferrin was the native one derived from cheese whey with 28.5% iron-saturation. […]

[2] = tested on: Klebsiella pneumoniae strain 3K25; assay: Example 2: experimental infection in mice, cefpodoxime with or without apolactoferrin; type: in vivo, strain ICR; conditions: lactoferrin treated control (iron free apolactoferrin 0.4 mg p.o.)
Description: as §1
Sixty male mice, strain ICR, five weeks of age, weighing 19.3±1.1 g (mean body weight±the standard deviation) were randomly allocated into ten groups (n=6), and intraperitoneally injected with pneumobacilli, Klebsiella pneumoniae strain 3K25, 5×10^5 CFU/mouse. One hour after the injection, the first group was orally given 0.2 ml of physiological saline, the second group orally given iron free apolactoferrin (0.4 mg) in 0.2 ml of saline, the third through the sixth groups were orally given cefpodoxime (4, 2, 1, and 0.5 mg/mouse) in 0.2 ml saline, and the seventh through the tenth groups orally given the admixture of cefpodoxime (4, 2, 1, and 0.5 mg/mouse) and apolactoferrin (0.4 mg) in 0.2 ml of saline. Mice were fed ad libitum and observed for a week under the same conditions as described in Example 1.

[3] = tested on: Klebsiella pneumoniae strain 3K25; assay: Example 5: experimentally infected fed and fasted mice, cefpodoxime with or without native lactoferrin; type: in vivo, strain ICR; conditions: cefpodoxime
Description: as §1
Male mice, strain ICR, five weeks old, weighing an average of 21.6 g, were randomly allocated into sixteen groups (n =6). During the next 24 hours, eight groups were allowed free access to diet and water, while the other eight groups were fasted overnight. On the next day, all the mice were injected with 1.4×10^6 CFU/mouse of Klebsiella pneumoniae strain 3K25. The minimal lethal dose of this bacterium is […], and thus the injected dose was 1,000 times greater than the minimal lethal dose. Immediately after the injection, the fed groups were orally given cefpodoxime (10, 5, 2.5, and 1.25 mg/mouse) simultaneously with or without native lactoferrin (0.2 mg/mouse). The fasted groups also were orally given cefpodoxime (10, 5, 2.5, and 1.25 mg/mouse) simultaneously with or without native lactoferrin (0.2 mg/mouse).

Escherichia coli #11 = assay: Example 6: experimental infection in mice, ampicillin with or without apolactoferrin; type: in vivo, strain ddY; conditions: simultaneous administration of lactoferrin with ampicillin
Description: as §1
Male mice, strain ddY, five weeks old, weighing an average of 21.5 g, were randomly allocated into groups (n=10), and they were intraperitoneally injected with Escherichia coli #11, 1.2×10^6 CFU/mouse. Immediately after the injection, the untreated control group was orally given 0.2 ml of distilled water, the second through the fifth groups were treated once orally by ampicillin (8, 4, 2 and 1 mg/mouse), and the sixth through the ninth groups with ampicillin (4, 2, 1 and 0.5 mg/mouse) plus apolactoferrin (1 mg/mouse) in 0.2 ml of distilled water. The mice were fed ad libitum and observed for one week under the same conditions as described in Example 1. […] It is apparent from the results that lactoferrin not only potentiates the efficacy of the cephalosporin class but also the penicillin class of antibiotics.

[4] = tested on: Klebsiella pneumoniae 3K25; assay: Example 7: experimental infection in mice, cefaclor with or without native lactoferrin; type: in vivo, strain ddY; conditions: simultaneous oral beta-lactam antibiotics with lactoferrin one hour after i.p. injection (as shown in Table 3)
[5] = tested on: Klebsiella pneumoniae strain 3K25; assay: Example 8: dose-response relationship of potentiation of cefpodoxime efficacy by oral lactoferrin; type: in vivo, mice, ddY
Description: as §1
The dose-response relationship of the potentiation of the antibiotic efficacy by lactoferrin was determined using the same experimental infection system as described in Example 1. Male ddY mice, five weeks of age, weighing approximate 20.3 g, were randomly allocated into groups (n=10); the first group was assigned to the cefpodoxime control (5 mg/mouse). The mice were intraperitoneally injected with pneumobacillus, Klebsiella pneumoniae strain 3K25, 3×10^5 per mouse. One hour after the injection, the antibiotic cefpodoxime (1, 0.5, 0.25 and 0.125 mg/mouse) was orally given in 0.2 ml of physiological saline.

[6] = tested on: Staphylococcus aureus 209P; assay: Example 9: time-schedule of lactoferrin administration and efficacy of amoxicillin; type: in vivo, mice, ddY; conditions: lactoferrin dosed from 12 hours before to three hours after the injection
Description: as §1
The effect of time-schedule of lactoferrin administration on the potentiation of antibiotic efficacy was examined using an experimental model similar to Example 1. Male ddY mice (n=10), five weeks old, weighing an average of 21.9 g, were used in this experiment. On day 0 all the mice were intraperitoneally injected with 1.2×10^5 CFU/mouse of Staphylococcus aureus 209P. Amoxicillin ([…], 0.625 mg/mouse) was orally given one hour after the injection.

pathogenic bacteria = assay: Potentiation of beta-lactam antibiotics by lactoferrin at the whole animal level (general statements); type: in vivo
Description: Co-administration of lactoferrin with beta-lactam antibiotics greatly reduces the antibiotic requirement, that is, 1/2 to 1/6 of the amount of the antibiotics required in monotherapy in combination with lactoferrin (combined therapy) show the same curative effects as the antibiotic treatment alone (monotherapy). Oral administration of lactoferrin is an effective route, and the dose of lactoferrin required for this potentiation is 0.5-100 mg/kg and the optimum dose may be 1-10 mg/kg.
Apolactoferrin can be utilized as a raw material to prepare lactoferrin with desired degrees of iron-saturation by adding calculated amounts of ferric ions in the presence of carbonium anions. […] Therefore, lactoferrins with various degrees of iron-saturation can be successfully utilized in this invention. The efficacy potentiation of beta-lactam antibiotics by lactoferrin is independent of the degree of the iron-saturation of lactoferrin.
When lactoferrin is orally dosed to potentiate the efficacy of beta-lactam antibiotics, either the combined formulation with the antibiotics or the formulation containing lactoferrin alone as an active ingredient can be successfully used. When lactoferrin is dosed separately from the antibiotics, the timing of the dosing is very important. The potentiating effect is the strongest when lactoferrin is given from six hours before to one hour after the antibiotic administration.

[7] = Stability of bovine lactoferrin powder; type: physicochemical
Description: The stability of bovine lactoferrin powder is also not affected by the degree of iron-saturation. […] Much care should be taken to avoid lactoferrin denaturation, especially denaturation by heat, in any formulating process. Due to its high stability, it is readily processed into mixed formulations with beta-lactam antibiotics for oral administration in any proportion, for example, freely mixed with lactose, cellulose, cellulose derivatives, magnesium stearate, and talc. One of the best ways to make lactoferrin liquid formulations, such as tincture and syrup, is adjustment of the pH to pH 3.1-4.0 by the addition of lactic acid to avoid bacterial contamination, then add paraaminobenzoic acid derivatives as preservatives against fungal contamination, and filtration through membrane filters (e.g., with pore size of 0.2 μm) into aseptic bottles.

[8] = bovine lactoferrin, oral; cited from earlier work

B1: lactoferrin: bovine lactoferrin, the native one derived from cheese whey with 28.5% iron-saturation (protein, UniProt P24627 20-708, looked up)
Lactotransferrin: APRKNVRWCTISQPEWFKCRRWQWRMKKLGAPSITCVRRAFALECIRAIAEKKADAVTLDGGMVFEAGRDPYKLRPVAAEIYGTKESPQTHYYAVAVVKKGSNFQLDQLQGRKSCHTGLGRSAGWIIPMGILRPYLSWTESLEPLQGAVAKFFSASCVPCIDRQAYPNLCQLCKGEGENQCACSSREPYFGYSGAFKCLQDGAGDVAFVKETTVFENLPEKADRDQYELLCLNNSRAPVDAFKECHLAQVPSHAVVARSVDGKEDLIWKLLSKAQEKFGKNKSRSFQLFGSPPGQRDLLFKDSALGFLRIPSKVDSALYLGSRYLTTLKNLRETAEEVKARYTRVVWCAVGPEEQKKCQQWSQQSGQNVTCATASTTDDCIVLVLKGEADALNLDGGYIYTAGKCGLVPVLAENRKSSKHSSLDCVLRPTEGYLAVAVVKKANEGLTWNSLKDKKSCHTAVDRTAGWNIPMGLIVNQTGSCAFDEFFSQSCAPGADPKSRLCALCAGDDQGLDKCVPNSKEKYYGYTGAFRCLAEDVGDVAFVKNDTVWENTNGESTADWAKNLNREDFRLLCLDGTRKPVTEAQSCHLAVAPNHAVVSRSDRAAHVKQVLLHQQALFGKNGKNCPDKFCLFKSETKNLLFNDNTECLAKLGGRPTYEEYLGTEYVTAIANLKKCSTSPLLEACAFLTR
modifications: 28.5% iron-saturated
notes: bovine lactoferrin, the native one derived from cheese whey with 28.5% iron-saturation
For B1, the mortality [1] was “all mice in those groups died by one day post-injection; also recorded: died within 24 hours”, the “mortality within 24 hours” value [2] was “All the mice died within 24 hours” and the “rate of potentiation of antibiotic efficacy” value ([3]; fasted state) was “five fold”. For the same molecule, the “rate of potentiation of antibiotic efficacy” value ([3]; fed state) was “three fold”, the “potentiation of ampicillin efficacy in vivo” value (Escherichia coli #11) was “eight fold” and the “potentiation of the antibiotic efficacy versus antibiotic treatment alone” value [4] was 2.8 fold. The “potentiation of antibiotic efficacy” value ([5]; lactoferrin doses from 50 to 0.05 mg per mouse, cefpodoxime) was “significantly potentiated the antibiotic efficacy at the same magnitude regardless of the dose”, the “lactoferrin dose at which potentiation reaches a plateau” value ([5]; with cefpodoxime) was 0.05 mg per mouse and the “potentiation of amoxicillin's efficacy” value [6] was “significantly potentiated”. For the same molecule, the “effect of the degree of iron-saturation on potentiation of beta-lactam antibiotics” value (pathogenic bacteria; 100%, 28% and 0% iron-saturated lactoferrin) was “does not affect the potentiation”, the “potentiating effect by timing of lactoferrin dosing” value (pathogenic bacteria; 12 hours before or six hours after the antibiotic administration) was “significant but less potent effect” and the “potentiating effect by timing of lactoferrin dosing” value (pathogenic bacteria; from six hours before to one hour after the antibiotic administration) was “the strongest”. For the same molecule, the “effect of the degree of iron-saturation on stability” value [7] was “not affected”, the stability ([7]; room temperature) was “very stable at room temperature” and the “excretion in intact form in feces” value [8] was “considerable amounts are excreted in intact form in feces”. The “resistance to gastrointestinal digestion” value [8] was “highly resistant to gastrointestinal digestion”.
